Test results taken from patent US20210379110A1 (LENTIGEN TECHNOLOGY, published 2021).

B1: human anti-CD22 ScFv binder 16P17 (scFv, V domains shown)
VH: QVQLQQSGPGLVKHSQTLSLTCAISGDSVSSNSAAWNWIRQSPSRGLEWLGRTYYRSKWYNDYAVSVKSRITINPDTSKNQFSLQLNSVTPEDTAVYYCAQEVEPHDAFDIWGQGTMVTVSS
VL: DIQMTQSPSSVYASVGDKVTITCRASQDVSGWLAWYQQKPGLAPQLLISGASTLQGEVPSRFSGSGSGTDFTLTISSLQPEDFATYYCQQAKYFPYTFGQGTKLEIK
notes: In the CARs the order is VH-(GGGGS)3-VL; also called CD22 scFv 16P17
B2: D0112 (EF-1a-CD22 (m971)-TSLPR CD8 BBz) (other)
chain: QVQLQQSGPGLVKPSQTLSLTCAISGDSVSSNSAAWNWIRQSPSRGLEWLGRTYYRSKWYNDYAVSVKSRITINPDTSKNQFSLQLNSVTPEDTAVYYCAREVTGDLEDAFDIWGQGTMVTVSSGGGGSGGGGSGGGGSDIQMTQSPSSLSASVGDRVTITCRASQTIWSYLNWYQQRPGKAPNLLIYAASSLQSGVPSRFSGRGSGTDFTLTISSLQAEDFATYYCQQSYSIPQTFGQGTKLEIKGGGGSGGGGSGGGGSGGGGSGGGGSQVTLKESGPGILKPSQTLSLTCSFSGFSLSTSGMGVGWIRQPSGKGLEWLAHIWWDDDKYYNPSLKSQLTISKDTSRNQVFLKITSVDTADTATYYCSRRPRGTMDAMDYWGQGTSVTVSSGGGGSGGGGSGGGGSDIVMTQAASSLSASLGDRVTISCRASQDISKYLNWYQQKPDGTVKLLIYYTSRLHSGVPSRFSGSGSGTDYSLTIRNLEQEDIATYFCQQVYTLPWTFGGGTKLEIKAAATTTPAPRPPTPAPTIASQPLSLRPEACRPAAGGAVHTRGLDFACDIYIWAPLAGTCGVLLLSLVITLYCKRGRKKLLYIFKQPFMRPVQTTQEEDGCSCRFPEEEEGGCELRVKFSRSADAPAYQQGQNQLYNELNLGRREEYDVLDKRRGRDPEMGGKPRRKNPQEGLYNELQKDKMAEAYSEIGMKGERRRGKGHDGLYQGLSTATKDTYDALHMQALPPR
notes: Tandem chimeric antigen receptor on human primary T cells: leader, CD22 scFv m971 (membrane-distal), (GGGGS)5, TSLPR scFv 3G11, CD8 hinge/TM, 4-1BB, CD3 zeta; also called CAR 22m971-TSLPR BBz
B3: D0111 (EF-1a-TSLPR-CD22 (m971) CD8 BBz) (other)
chain: QVTLKESGPGILKPSQTLSLTCSFSGFSLSTSGMGVGWIRQPSGKGLEWLAHIWWDDDKYYNPSLKSQLTISKDTSRNQVFLKITSVDTADTATYYCSRRPRGTMDAMDYWGQGTSVTVSSGGGGSGGGGSGGGGSDIVMTQAASSLSASLGDRVTISCRASQDISKYLNWYQQKPDGTVKLLIYYTSRLHSGVPSRFSGSGSGTDYSLTIRNLEQEDIATYFCQQVYTLPWTFGGGTKLEIKGGGGSGGGGSGGGGSGGGGSGGGGSQVQLQQSGPGLVKPSQTLSLTCAISGDSVSSNSAAWNWIRQSPSRGLEWLGRTYYRSKWYNDYAVSVKSRITINPDTSKNQFSLQLNSVTPEDTAVYYCAREVTGDLEDAFDIWGQGTMVTVSSGGGGSGGGGSGGGGSDIQMTQSPSSLSASVGDRVTITCRASQTIWSYLNWYQQRPGKAPNLLIYAASSLQSGVPSRFSGRGSGTDFTLTISSLQAEDFATYYCQQSYSIPQTFGQGTKLEIKAAATTTPAPRPPTPAPTIASQPLSLRPEACRPAAGGAVHTRGLDFACDIYIWAPLAGTCGVLLLSLVITLYCKRGRKKLLYIFKQPFMRPVQTTQEEDGCSCRFPEEEEGGCELRVKFSRSADAPAYQQGQNQLYNELNLGRREEYDVLDKRRGRDPEMGGKPRRKNPQEGLYNELQKDKMAEAYSEIGMKGERRRGKGHDGLYQGLSTATKDTYDALHMQALPPR
notes: Tandem chimeric antigen receptor on human primary T cells: leader, TSLPR scFv 3G11 (membrane-distal), (GGGGS)5, CD22 scFv m971, CD8 hinge/TM, 4-1BB, CD3 zeta; also called CAR TSLPR-22m971 BBz

Columns and labels:
[1] = target: T1, recombinant human CD22 (labeled) (human, UniProt P20273 20-687, limits assumed); experiment: flow cytometry of yeast-displayed scFv with decreasing amounts of labeled CD22
T1 construct: Labeled antigen titrated on yeast; It may be CD22-Fc; also called labeled CD22
T1 sequence (looked up): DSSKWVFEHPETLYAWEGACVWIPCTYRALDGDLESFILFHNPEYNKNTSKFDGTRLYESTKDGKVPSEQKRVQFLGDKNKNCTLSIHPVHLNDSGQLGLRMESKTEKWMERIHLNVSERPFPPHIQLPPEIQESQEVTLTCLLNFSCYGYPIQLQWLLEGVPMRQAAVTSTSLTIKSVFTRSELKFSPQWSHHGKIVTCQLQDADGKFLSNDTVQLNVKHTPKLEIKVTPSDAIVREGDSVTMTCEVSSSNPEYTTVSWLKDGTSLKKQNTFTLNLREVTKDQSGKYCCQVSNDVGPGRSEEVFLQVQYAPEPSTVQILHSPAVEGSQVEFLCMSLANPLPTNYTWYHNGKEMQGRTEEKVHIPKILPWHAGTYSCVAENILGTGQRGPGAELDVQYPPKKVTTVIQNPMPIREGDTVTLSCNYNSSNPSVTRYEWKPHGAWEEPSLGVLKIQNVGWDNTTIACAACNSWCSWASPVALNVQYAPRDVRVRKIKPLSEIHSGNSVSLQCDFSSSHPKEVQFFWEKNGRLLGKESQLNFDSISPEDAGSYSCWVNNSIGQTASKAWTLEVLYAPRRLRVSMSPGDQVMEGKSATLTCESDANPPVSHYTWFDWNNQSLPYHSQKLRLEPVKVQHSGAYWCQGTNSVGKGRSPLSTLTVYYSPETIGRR
Protocol: After electroporation, the resulting mutant library was then grown overnight at 30° C. for 16 hours in SDCAA medium and then switched into SGCAA medium at 30° C. for another 16 hours. The mutant library was then sorted through MACS (immunomagnetic column, Miltenyi Biotec) with CD22-Fc as the capture antigen to downsize the library and to increase the population of mutants that could bind to CD22-Fc. The strongest binders were then selected by double staining the pools with Anti-c-Myc-Alexa 488 and […] and selecting for the binders that had the highest binding affinities as well as c-Myc expression levels. This process was then repeated two more times, until flow cytometry of yeast particles with fluorescently tagged antigen yielded average binding affinities of the mutant pools that were increased over the starting construct. Binding affinities were estimated by flow cytometry of yeast pools using decreasing amounts of labeled CD22.

[2] = target: T2, TSLPR-Fc peptide (R&D systems) (UniProt Q9HC73 25-231); experiment: flow cytometry, CAR T cells stained with TSLPR-Fc then anti-Fc AF647
T2 construct: Bought reagent (R&D systems); also called TSLPR-Fc reagent; not shown: Fc part of the bought reagent
T2 sequence (looked up): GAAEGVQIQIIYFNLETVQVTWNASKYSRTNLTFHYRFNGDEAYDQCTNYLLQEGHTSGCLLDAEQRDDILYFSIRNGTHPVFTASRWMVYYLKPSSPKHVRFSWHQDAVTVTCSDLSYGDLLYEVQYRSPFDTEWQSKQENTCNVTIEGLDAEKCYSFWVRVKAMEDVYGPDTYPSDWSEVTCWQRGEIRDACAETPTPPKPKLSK
Protocol: Flow cytometric analysis was performed to detect the CAR molecule surface expression. Half million of harvested primary T cells were washed and stained with cold AutoMACS buffer supplemented with 0.5% bovine serum albumin (Miltenyi Biotec, Bergisch Gladbach, Germany), and resuspended in 200 ul Running Buffer before acquired by MACSQuant®10 Analyzer (Miltenyi Biotec Bergisch Gladbach, Germany). For CAR surface expression, TSLPR Fc, CD19Fc and CD22Fc peptide (R&D systems, Minneapolis, Minn.) were used followed anti Fc-AF647 (Jackson ImmunoResearch, West Grove, Pa.). T cell subtypes was further identified with anti-CD4 antibody conjugated to VioBlue fluorophore (Miltenyi Biotec Bergisch Gladbach, Germany). Dead cells in all studies were excluded by 7AAD staining (BD Biosciences, San Jose, Calif.). Flow data were analyzed with MACSQuantify software.
Specific detection of each scFv domain within the CAR structure was facilitated by CAR T cell staining with TSLPR-Fc peptide, or CD19-Fc peptide, followed by a secondary staining with anti-Fc AF647-labeled reagent, and fluorescence was detected in the APC channel. In CAR construct D0101, in which CD19 scFv was membrane-proximal and the TSLPR scFv was membrane-distal, the TSLPR scFv was detected at 44% of the transduced cells, and CD19 scFv was detected at 31%. In CAR construct D0102 with the reverse binder orientation (i.e. the TSLPR scFv membrane-proximal, and CD19 scFv membrane-distal), the detection levels were 85% and 75% for scFv TSLPR and CD19, respectively (FIG. 2).

[3] = target: T3, CD22-Fc peptide (R&D systems) (UniProt P20273 20-687); experiment: flow cytometry, CAR T cells stained with CD22-Fc then anti-Fc AF647
T3 construct: Bought reagent (R&D systems); not shown: Fc part of the bought reagent
T3 sequence (looked up): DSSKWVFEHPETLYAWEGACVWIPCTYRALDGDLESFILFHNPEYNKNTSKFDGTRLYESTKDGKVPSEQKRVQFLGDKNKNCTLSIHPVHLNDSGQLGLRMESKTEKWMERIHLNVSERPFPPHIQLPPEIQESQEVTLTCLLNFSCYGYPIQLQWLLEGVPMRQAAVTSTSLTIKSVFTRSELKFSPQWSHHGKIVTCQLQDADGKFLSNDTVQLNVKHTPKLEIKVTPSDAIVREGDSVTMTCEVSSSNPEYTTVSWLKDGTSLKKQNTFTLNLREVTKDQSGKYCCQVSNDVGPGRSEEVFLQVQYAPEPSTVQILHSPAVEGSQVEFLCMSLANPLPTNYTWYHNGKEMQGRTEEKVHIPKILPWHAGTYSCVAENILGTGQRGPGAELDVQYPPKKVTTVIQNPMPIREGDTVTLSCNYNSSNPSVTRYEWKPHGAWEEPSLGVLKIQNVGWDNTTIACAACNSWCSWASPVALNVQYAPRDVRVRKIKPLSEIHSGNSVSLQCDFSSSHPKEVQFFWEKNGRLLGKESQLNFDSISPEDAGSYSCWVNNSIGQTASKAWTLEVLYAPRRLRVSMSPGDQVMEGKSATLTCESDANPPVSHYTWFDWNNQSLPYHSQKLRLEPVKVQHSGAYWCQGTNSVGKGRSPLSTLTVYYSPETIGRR
Protocol: For CAR surface expression, TSLPR Fc, CD19Fc and CD22Fc peptide (R&D systems, Minneapolis, Minn.) were used followed anti Fc-AF647 (Jackson ImmunoResearch, West Grove, Pa.). T cell subtypes was further identified with anti-CD4 antibody conjugated to VioBlue fluorophore (Miltenyi Biotec Bergisch Gladbach, Germany). Dead cells in all studies were excluded by 7AAD staining (BD Biosciences, San Jose, Calif.). Flow data were analyzed with MACSQuantify software.
To develop the tandem CD22 and TSLPR targeting CARs, CD22-directed scFv 16P17 was used in either membrane-proximal or membrane-distal orientation (construct D0103 and D0104, respectively). For TSLPR-targeting, scFv 3G11 was used. Surface expression of the tandem TSLPR×CD22 CAR incorporating the human ScFv 16P17 together with the TSLPR scFv 3G11, when the TSLPR scFv is positioned in the membrane-distal orientation (D0103), or in the membrane-proximal orientation (D0104) is shown in FIG. 5. Specific detection of each scFv domain within the CAR structure was facilitated by CAR T cell staining with TSLPR-Fc peptide, or CD22-Fc peptide, followed by a secondary staining with anti-Fc AF647-labeled reagent, and detected in the APC channel by flow cytometry. In CAR construct D0103, in which CD22 scFv was membrane-proximal and the TSLPR scFv was membrane-distal, the TSLPR scFv was detected at 26% of the transduced cells, and CD22 scFv was detected at 11%. In CAR construct D0104 with the opposite binder orientation (i.e. the CD22 scFv was membrane-distal, and the TSLPR scFv was membrane-proximal), the detection levels were 75% and 39% for scFv TSLPR and CD22, respectively (FIG. 5).
The surface expression of the tandem TSLPR×CD22 CAR incorporating the human ScFv m971 in membrane-proximal orientation (D0111), and in the membrane-distal orientation (D0112) is shown in FIG. 8. Specific detection of each scFv domain within the CAR structure was facilitated by CAR T cell staining with TSLPR-Fc peptide, or CD22-Fc peptide, followed by a secondary staining with anti-Fc AF647-labeled reagent and detection in the APC channel by flow cytometry. In CAR construct D0111, in which CD22 scFv was membrane-proximal and the TSLPR scFv was membrane-distal, the TSLPR scFv was detected at 34% of the transduced cells, and CD22 scFv was detected at 11%.

| Binder | EC50 [1] | percent of transduced T cells stained by antigen-Fc [2] | percent of transduced T cells stained by antigen-Fc [3] |
| --- | --- | --- | --- |
| B1 | < 0.01 µg/mL |  |  |
| B2 |  | 73% | 39% |
| B3 |  | 34% | 11% |
